{
  "source": "patent US20020045591A1",
  "about": "“Methods and therapeutic compositions for treating cancer” (priority 1998, published 2002)",
  "molecules": {"B1": {"name": "N-cadherin tail: Cytoplasmic domain of chicken N-cadherin tagged with a Flag epitope (protein)", "chain": "MKRRDKERQAKQLLIDPEDDVRDNILKYDEEGGGEEDQDYDLSQLQQPDTVEPDAIKPVGIRRLDERPIHAEPQYPVRSAAPHPGDIGDFINEGLKAADNDPTAPPYDSLLVFDYEGSGSTAGSLSSLNSSSSGGEQDYDYLNDWGPRFKKLADMYGGGDD", "modifications": "left off: small tags and cut ends"}},
  "key": {"CHO cells": {"tested_on": "CHO cells", "assay": "Immunofluorescence localization in CHO cells", "format": "cell-based", "settings": "stably transfected CHO cells, FIG. 4", "text": "(§1) Immunofluorescence microscopy: Cells cultured on glass coverslips were fixed with 3% paraformaldehyde in phosphate-buffered saline (PBS) and permeabilized with 0.5% Triton X-100. CHO cells were immunofluorescently labeled as described (Levenberg S. et al. (1998) Long-range and selective autoregulation of cell-cell and cell-matrix adhesions by cadherin or integrin ligands. J. Cell Sci. 111:347-357). Nuclei were visualized using DAPI and the fluorescence was examined using a Zeiss Axiophot microscope and a x100/1.3 Planapochromat objective."}, "β-catenin": {"biological_target": "T1, β-catenin (Cricetulus griseus, UniProt G3H996)", "T1 construct": "resulting from the stabilization of the endogenous β-catenin by the transfected cadherin derivatives; endogenous in cells; host or cells: CHO cells, stably or transiently transfected with cadherin derivatives only", "T1 sequence (G3H996 1-781)": "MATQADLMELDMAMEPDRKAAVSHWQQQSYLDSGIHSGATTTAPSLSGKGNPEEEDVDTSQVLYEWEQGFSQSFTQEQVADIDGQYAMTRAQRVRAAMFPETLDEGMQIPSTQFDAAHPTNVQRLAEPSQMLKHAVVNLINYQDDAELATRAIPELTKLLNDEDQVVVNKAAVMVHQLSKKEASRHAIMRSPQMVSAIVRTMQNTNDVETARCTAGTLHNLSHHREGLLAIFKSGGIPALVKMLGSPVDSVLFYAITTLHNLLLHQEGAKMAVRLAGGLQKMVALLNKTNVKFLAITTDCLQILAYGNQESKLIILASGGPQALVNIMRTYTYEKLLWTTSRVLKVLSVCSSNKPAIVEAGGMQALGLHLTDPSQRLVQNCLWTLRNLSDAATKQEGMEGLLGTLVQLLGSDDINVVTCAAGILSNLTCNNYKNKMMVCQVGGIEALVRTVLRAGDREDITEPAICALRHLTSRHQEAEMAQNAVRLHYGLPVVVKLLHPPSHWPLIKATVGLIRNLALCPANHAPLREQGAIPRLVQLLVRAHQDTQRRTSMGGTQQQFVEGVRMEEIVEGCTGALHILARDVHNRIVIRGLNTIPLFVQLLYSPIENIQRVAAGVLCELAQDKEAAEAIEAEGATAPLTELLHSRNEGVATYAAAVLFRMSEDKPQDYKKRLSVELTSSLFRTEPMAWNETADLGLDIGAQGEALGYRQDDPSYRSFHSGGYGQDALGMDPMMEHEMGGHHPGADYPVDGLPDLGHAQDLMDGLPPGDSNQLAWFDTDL", "assay": "Co-immunoprecipitation of cadherin derivatives with β-catenin in CHO cells", "format": "binding", "settings": "stably transfected CHO cells, FIG. 2B", "text": "Immunoblotting and immunoprecipitation: The following antibodies were used: polyclonal pan-cadherin or monoclonal anti cadherin (CH-19) and polyclonal anti β-catenin antibodies were from Sigma (Holon, Israel). Monoclonal anti β-catenin, 5H10 (from M. Wheelock), anti IL2Rα (from UBI), anti flag (M2, from IBI), anti HA (clone 12CA5, from Boehringer Mannheim, Germany), anti GFP (polyclonal, from Clontech, Palo Alto, Calif.), anti LEF-1 (polyclonal, kindly provided by Dr. R. Grosschedl). Secondary antibodies for Western blotting were goat anti rabbit or anti mouse conjugated to HRP (Amersham, Buckinghampshire, UK), and for immunofluorescence analysis the secondary antibodies were FITC-goat anti mouse (Cappel, USA) or rhodamine-anti rabbit antibodies (from Jackson Immuno-Research, West Grove, Pa.). Cells were harvested in Laemmli's sample buffer and equal amounts of total cell protein from the different clones, or from transient transfections, were separated by SDS-PAGE, electrotransferred to nitrocellulose and incubated with the different antibodies. For immunoprecipitation, cells were harvested in IP buffer (20 mM Tris pH 8.0, 1% Triton X-100, 140 mM NaCl, 10% glycerol, 1 mM EGTA, 1.5 mM MgCl2, 1 mM DTT, 1 mM sodium vanadate, and 50 μg/ml PMSF). […]"}, "SW480 cells": {"tested_on": "SW480 cells", "assay": "Immunofluorescence localization in SW480 cells (Example 1)", "format": "cell-based, human", "settings": "transfected SW480 cells, FIG. 6B", "text": "as §1"}},
  "data": [
    {"molecule": "B1", "values": [
      {"measurement": "subcellular localization of cadherin derivative and β-catenin", "setting": "CHO cells", "result": "mainly localized in the nucleus"},
      {"measurement": "interaction with β-catenin by co-immunoprecipitation", "setting": "β-catenin", "result": "direct interaction"},
      {"measurement": "subcellular localization of β-catenin", "setting": "SW480 cells", "result": "colocalized with β-catenin in the nucleus"}
    ]}
  ]
}
